Assay results as given in patent publication US20150266977A1 (AbbVie / Abbott, published 2015).
Values belong to the binder of their own block, whether it stands above or below them.

Key:
[1] = molecular target: T1, recombinant human sclerostin (human, UniProt Q9BQB4 24-213); assay: SPR
T1 construct: biotinylated in the ELISAs; also called hu sclerostin; hu scl
T1 sequence: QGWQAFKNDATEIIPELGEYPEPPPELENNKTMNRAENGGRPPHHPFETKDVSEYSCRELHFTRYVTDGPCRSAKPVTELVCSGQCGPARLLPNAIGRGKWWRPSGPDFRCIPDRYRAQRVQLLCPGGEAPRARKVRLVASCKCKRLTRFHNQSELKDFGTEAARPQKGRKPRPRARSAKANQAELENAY

[2] = molecular target: T2, recombinant cynomolgus monkey sclerostin (cynomolgus monkey); assay: SPR
T2 construct: also called cyno sclerostin; Cyno sclerostin

recombinant human TNF-α [3] = molecular target: T3, recombinant human TNF-α (human, UniProt P01375 77-233); assay: SPR
T3 construct: also called huTNF; Human TNFa

recombinant human TNF-α [4] = molecular target: T3, recombinant human TNF-α; assay: cell-based or functional assay
recombinant human TNF-α [5] = molecular target: T3, recombinant human TNF-α; assay: cell-based or functional assay; remark: listed apart in the source
Rhesus/cynoTNFa = Rhesus/cynoTNFa (Rhesus/cyno); assay: cell-based or functional assay
Chain of Rhesus/cynoTNFa (Rhesus/cyno) (P48094 whole entry): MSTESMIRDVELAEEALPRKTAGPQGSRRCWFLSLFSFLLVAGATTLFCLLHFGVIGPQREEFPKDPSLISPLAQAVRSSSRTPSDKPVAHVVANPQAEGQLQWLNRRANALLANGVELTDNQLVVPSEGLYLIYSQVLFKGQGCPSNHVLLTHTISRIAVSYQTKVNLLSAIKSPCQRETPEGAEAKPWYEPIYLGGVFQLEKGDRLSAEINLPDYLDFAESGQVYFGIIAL

T3 sequence (P01375 77-233 limits assumed): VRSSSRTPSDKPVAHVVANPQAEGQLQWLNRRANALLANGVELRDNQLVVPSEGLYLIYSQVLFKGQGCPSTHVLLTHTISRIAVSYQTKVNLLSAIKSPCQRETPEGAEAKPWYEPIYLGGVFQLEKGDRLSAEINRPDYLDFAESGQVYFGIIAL

Kd [1]: 0.00039 nM
koff [1]: 2.3e-06 s⁻¹
kon [1]: 5.9e+06 M⁻¹ s⁻¹
Kd [2]: < 0.00011 nM
koff [2]: < 1e-06 s⁻¹
kon [2]: 9.3e+06 M⁻¹ s⁻¹
Kd (recombinant human TNF-α [3]): 0.027 nM
koff (recombinant human TNF-α [3]): 5.8e-05 s⁻¹
kon (recombinant human TNF-α [3]): 2.1e+06 M⁻¹ s⁻¹
L929 TNF neutralization IC50 with 50 nM SOST (recombinant human TNF-α [4]): 0.036 nM
L929 TNF neutralization IC50 without 50 nM SOST (recombinant human TNF-α [4]): 0.025 nM
L929 TNF neutralization IC50 (recombinant human TNF-α [5]): 0.0677 nM
L929 TNF neutralization IC50 (Rhesus/cynoTNFa): 0.042 nM
B1: MAK199-1-GS-AE10-6 AM7 (bispecific antibody, human IgG1, lambda, L234A L235A)
heavy: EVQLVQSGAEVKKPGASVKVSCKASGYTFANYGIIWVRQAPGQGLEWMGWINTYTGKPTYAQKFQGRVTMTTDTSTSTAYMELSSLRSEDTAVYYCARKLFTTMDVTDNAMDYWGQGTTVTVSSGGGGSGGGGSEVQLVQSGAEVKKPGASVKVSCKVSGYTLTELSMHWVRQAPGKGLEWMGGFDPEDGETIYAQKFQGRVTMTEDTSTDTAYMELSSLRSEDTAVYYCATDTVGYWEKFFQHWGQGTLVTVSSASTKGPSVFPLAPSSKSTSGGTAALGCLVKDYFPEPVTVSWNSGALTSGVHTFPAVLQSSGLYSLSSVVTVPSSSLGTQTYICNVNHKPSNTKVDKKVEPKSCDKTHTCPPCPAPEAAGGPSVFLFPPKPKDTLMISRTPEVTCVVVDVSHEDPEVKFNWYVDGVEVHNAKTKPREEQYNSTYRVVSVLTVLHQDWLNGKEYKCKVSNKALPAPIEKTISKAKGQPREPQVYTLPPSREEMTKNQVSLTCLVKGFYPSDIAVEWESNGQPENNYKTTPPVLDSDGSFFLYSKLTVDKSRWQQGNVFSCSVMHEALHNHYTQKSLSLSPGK
light: DIQMTQSPSSLSASVGDRVTITCRASQDISQYLNWYQQKPGKAPKLLIYYTSRLQSGVPSRFSGSGSGTDFTLTISSLQPEDFATYFCQQGNTWPPTFGQGTKLEIKRGGSGGGGSGQAVVTQEPSLTVSPGGTVTLTCGSSTGTVTIDHYPYWFQQKPGQAPRTLISDTDDKHSWTPARFSGSLLGGKAALTLSGAQPEDEAEYYCLLDYGGRFVFGGGTKLTVLGQPKAAPSVTLFPPSSEELQANKATLVCLISDFYPGAVTVAWKADSSPVKAGVETTTPSKQSNNKYAASSYLSLTPEQWKSHRSYSCQVTHEGSTVEKTVAPTECS
notes: DVD-Ig: outer MAK199-1, inner AE10-6 AM7; also called MAK199-1-GS-AM10-6 AM7; MAK199-1GSAM10-6 AM7

Kd [1]: 0.052 nM
koff [1]: 8.3e-06 s⁻¹
kon [1]: 160000 M⁻¹ s⁻¹
Kd (recombinant human TNF-α [3]): 0.017 nM
koff (recombinant human TNF-α [3]): 4.4e-05 s⁻¹
kon (recombinant human TNF-α [3]): 2.6e+06 M⁻¹ s⁻¹
L929 TNF neutralization IC50 (recombinant human TNF-α [5]): 0.0581 nM
L929 TNF neutralization IC50 (Rhesus/cynoTNFa): 0.0569 nM
B2: MAK199-1-SS-AE10-6 AM7 (bispecific antibody, human IgG1, lambda, L234A L235A)
heavy: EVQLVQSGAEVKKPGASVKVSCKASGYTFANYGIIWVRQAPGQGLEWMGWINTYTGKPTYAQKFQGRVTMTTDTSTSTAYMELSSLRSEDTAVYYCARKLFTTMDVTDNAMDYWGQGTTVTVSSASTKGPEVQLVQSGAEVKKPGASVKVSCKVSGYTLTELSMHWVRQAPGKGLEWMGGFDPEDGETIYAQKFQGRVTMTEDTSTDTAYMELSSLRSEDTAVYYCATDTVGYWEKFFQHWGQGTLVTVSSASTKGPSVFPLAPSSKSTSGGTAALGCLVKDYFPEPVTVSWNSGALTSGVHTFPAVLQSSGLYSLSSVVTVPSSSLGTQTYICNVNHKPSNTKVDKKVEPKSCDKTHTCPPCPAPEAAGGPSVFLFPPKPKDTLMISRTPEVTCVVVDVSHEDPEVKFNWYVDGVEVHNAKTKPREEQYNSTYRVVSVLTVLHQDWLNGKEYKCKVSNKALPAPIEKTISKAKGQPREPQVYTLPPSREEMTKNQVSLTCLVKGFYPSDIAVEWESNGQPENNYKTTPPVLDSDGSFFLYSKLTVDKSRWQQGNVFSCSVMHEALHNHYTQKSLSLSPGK
light: DIQMTQSPSSLSASVGDRVTITCRASQDISQYLNWYQQKPGKAPKLLIYYTSRLQSGVPSRFSGSGSGTDFTLTISSLQPEDFATYFCQQGNTWPPTFGQGTKLEIKRTVAAPQAVVTQEPSLTVSPGGTVTLTCGSSTGTVTIDHYPYWFQQKPGQAPRTLISDTDDKHSWTPARFSGSLLGGKAALTLSGAQPEDEAEYYCLLDYGGRFVFGGGTKLTVLGQPKAAPSVTLFPPSSEELQANKATLVCLISDFYPGAVTVAWKADSSPVKAGVETTTPSKQSNNKYAASSYLSLTPEQWKSHRSYSCQVTHEGSTVEKTVAPTECS
notes: DVD-Ig: outer MAK199-1, inner AE10-6 AM7
